In patent US20090275502A1, “METHODS AND COMPOSITIONS FOR ENHANCING DEVELOPMENTAL POTENTIAL OF OOCYTES AND PREIMPLANTATION EMBRYOS” (MOUNT SINAI HOSPITAL, priority 2005, published 2009):

Tests used:
Assay type in all cases: cell-based, mouse
FVB oocytes [1] = experiment: Reactive oxygen species (H2DCFDA) content of FVB oocytes; conditions: co-treatment of FVB oocytes; inhibitor 2 μg ml^−1, 30 min; data not shown
Procedure: Reduced glutathione (GSH) content: Quantitation of cellular GSH was assayed by use of monochlorobimane (Molecular Probes, Eugene, Oreg.), a cell-permeant dye that becomes fluorescent upon conjugation to thiol groups (Nasr-Esfahani and Johnson 1992). One group of untreated oocytes served as a control for measuring baseline GSH levels, whereas two other groups of oocytes were treated with I mM hydrogen peroxide (Sigma). For the latter, one group was exposed to hydrogen peroxide for 90 min (oxidative insult) whereas the second group was incubated with hydrogen peroxide for 30 min and transferred to fresh culture medium without hydrogen peroxide for an additional 60 min (recovery after oxidative insult). During the last 15 min of incubation, monochlorobimane was added to a final concentration of 1 mM, after which the oocytes were washed in fresh culture medium. Imaging and micrograph analyses were then conducted using a deconvolution microscope equipped with a cyan fluorescent protein filter. The average fluorescence intensities were tabulated on a per oocyte basis, and the data were then compiled per group. Reactive oxygen species: Formation of ROS was determined through the use of 2′,7′-dichlorodihydrofluorescein diacetate (H2DCFDA; Molecular Probes) as described (Yang et al. 1998). The H2DCFDA dye is membrane permeant, and upon entering the cell the acetate groups are hydrolyzed, creating a membrane impermeant form of the dye (H2DCF). Endogenous ROS oxidize this polar form of the dye to a quantifiable fluorogenic compound (DCF). Oocytes were mixed with a freshly prepared solution of 0.01 M H2DCFDA and incubated for 15 min. After extensive washing in fresh culture medium, imaging was carried out using a deconvolution microscope with a FITC filter. Total light intensity for each optical section and average light intensity for each oocyte were determined using the Delta Vision Software Analysis program. In order to determine baseline fluorescence, control oocytes (unstained) were incubated with an appropriate volume of vehicle (DMSO) prior to imaging. […]

FVB oocytes [2] = experiment: Electron microscopy of mitochondrial ultrastructure in FVB oocytes; conditions: 10 mM, 3 h; versus vehicle
Procedure: Electron microscopy: Oocytes were cultured without or with pyruvate (10 mM) for 3 h prior to being fixed for EM tomography. The oocytes were embedded in agarose and prepared for tomography using conventional protocols for good structural preservation (Ricci et al. 2004). To survey the preservation quality of the oocytes, thin-sectioned materials (−80 nm) were examined using a JEOL 1200FX electron microscope. Three-dimensional reconstructions of portions of the cell containing mitochondria were generated using standard techniques (Perkins et al. 2003). Sections with a thickness between 300-500 nm were cut out, and stained for 30 min in 2% aqueous uranyl acetate, followed by 30 min in lead salts. Next, fiducial cues consisting of 20 nm colloidal gold particles were deposited on both sides of each section.
For each reconstruction, a series of images at regular tilt increments were collected with a JEOL 4000EX intermediate-voltage electron microscope operated at 400 kV. In order to limit anisotropic specimen thinning during image collection, the specimens were irradiated before initiating a tilt series. […] Tilt series were recorded at a magnification of 20,000× with an angular increment of 2° from −60° to +60° about an axis perpendicular to the optical axis of the microscope using a computer-controlled goniometer to achieve accurate increments at each angular step. […]

B6C3F1 oocytes = experiment: Apoptosis in cultured B6C3F1 oocytes after microinjection
Procedure: (§1) Oocyte isolation and culture: Oocytes were collected after superovulation as described (Perez et al. 1997; Perez et al. 1999; Morita et al. 2000). Briefly, ovulated oocytes were denuded of cumulus cells by a 1-min incubation in 80 IU ml of hyaluronidase (Sigma, St. Louis, Mo.), followed by three washes with culture medium. All cultures were carried out in human tubal fluid (Irvine Scientific, Santa Ana, Calif.) supplemented with 0.5% BSA. The oocytes were maintained in 0.1 ml drops of culture medium under paraffin oil, and incubated at 37° C. in a humidified atmosphere of 5% CO2 and 95% air.
(§2) In-vitrofertilization and embryo culture: Female mice were superovulated as described above and cumulus-oocyte complexes from the indicated strains were mixed with capacitated sperm collected from adult male mice of the respective strain for in-vitro fertilization (Morita et al. 2000). […] Since zygotes progress to the blastocyst stage of development within 96 h and begin hatching, embryos were fixed at this time and stained with the DNA-binding dye Hoechst 33342 (Sigma) for light and fluorescence microscopic analysis of blastocyst cell number and quality. […] Analysis of DNA “comets” to generate quantitative data on the percent of undamaged versus damaged DNA was performed using the VisComet program (Impuls Computergestutzte Bildanalyse GmbH, Gilching, Germany). […]

AKR/J oocytes [3] = experiment: Apoptosis in cultured AKR/J oocytes; conditions: microinjection; versus non-injected and BSA-injected oocytes
Procedure: as §1, §2

AKR/J zygotes = experiment: Preimplantation embryonic development of in-vitro fertilized AKR/J oocytes to the blastocyst stage
Procedure: In-vitrofertilization and embryo culture: Female mice were superovulated as described above and cumulus-oocyte complexes from the indicated strains were mixed with capacitated sperm collected from adult male mice of the respective strain for in-vitro fertilization (Morita et al. 2000). After 2 h, the cumulus-oocyte complexes were washed and maintained in KSOM medium (Specialty Media, Phillipsburg, N.J.) to determine fertilization rates and monitor embryonic progression. Since zygotes progress to the blastocyst stage of development within 96 h and begin hatching, embryos were fixed at this time and stained with the DNA-binding dye Hoechst 33342 (Sigma) for light and fluorescence microscopic analysis of blastocyst cell number and quality. Apoptosis analyses: Oocytes were evaluated as described (Perez et al. 1997; Perez et al. 1999; Mortia et al. 2000) for characteristics of apoptosis, including morphological changes (e.g., cellular condensation, budding and fragmentation) and biochemical alterations (i.e., DNA cleavage using Comet Assay Kit; Trevigen, Gaithersburg, Md.). Analysis of DNA “comets” to generate quantitative data on the percent of undamaged versus damaged DNA was performed using the VisComet program (Impuls Computergestutzte Bildanalyse GmbH, Gilching, Germany). […]

FVB oocytes [4] = experiment: Apoptosis in cultured FVB oocytes; conditions: microinjection; 24 h in vitro
Procedure: as §1, §2

AKR/J oocytes [5] = experiment: Comet assay of DNA damage in cultured AKR/J oocytes after microinjection; conditions: 6 h culture after microinjection, versus non-injected AKR/J oocytes
Procedure: as §1, §2

CC[C@H]1/C=C/C=C/C[C@@H](C)[C@H](O)[C@@](C)(O)C(=O)[C@@H](C)[C@H](O)[C@@H](C)C(=O)[C@@H](C)[C@H](O)[C@@H](C)/C=C/C(=O)O[C@@H]2[C@H](C)[C@H](CC1)O[C@]1(CC[C@H](C)[C@H](C[C@@H](C)O)O1)[C@H]2C [oligomycin]
reduction of ROS content (FVB oocytes [1]): 70%

CC(=O)C(=O)O [pyruvate]
reduction in number of abnormal mitochondria in FVB oocytes (FVB oocytes [2]): more than 75%

C=C(C)[C@H]1Cc2c(ccc3c2O[C@@H]2COc4cc(OC)c(OC)cc4[C@@H]2C3=O)O1 [rotenone]
reduction of ROS content (FVB oocytes [1]): 54%

antimycin-A
reduction of ROS content (FVB oocytes [1]): 70%

cytochrome c: cytochrome c microinjected into oocytes (6 pl of a 400 μM stock)
apoptosis in B6C3F1 oocytes (B6C3F1 oocytes; subsequent 24 h culture): did not affect the incidence of apoptosis

B1: Rad51: recombinant Rad51 DNA repair protein (Kurumizaka et al. 1999), microinjected (protein, UniProt Q06609 2-339, looked up)
DNA repair protein RAD51 …: AMQMQLEANADTSVEEESFGPQPISRLEQCGINANDVKKLEEAGFHTVEAVAYAPKKELINIKGISEAKADKILAEAAKLVPMGFTTATEFHQRRSEIIQITTGSKELDKLLQGGIETGSITEMFGEFRTGKTQICHTLAVTCQLPIDRGGGEGKAMYIDTEGTFRPERLLAVAERYGLSGSDVLDNVAYARAFNTDHQTQLLYQASAMMVESRYALLIVDSATALYRTDYSGRGELSARQMHLARFLRMLLRLADEFGVAVVITNQVVAQVDGAAMFAADPKKPIGGNIIAHASTTRLYLRKGRGETRICKIYDSPCLPEAEAMFAINADGVGDAKD
apoptosis in AKR/J oocytes (AKR/J oocytes [3]): significantly suppressed apoptosis | blastocyst formation rates of AKR/J zygotes (AKR/J zygotes; microinjection into AKR/J zygotes, compared with C57BL/6 zygotes): levels not different from those observed with C57BL/6 zygotes | microinjected AKR/J zygotes completing development to the blastocyst stage (AKR/J zygotes; microinjection into fertilized AKR/J oocytes, untreated less than 10%): more than 30% | incidence of apoptosis in FVB oocytes (FVB oocytes [4]): no effect | extent of DNA damage (AKR/J oocytes [5]): decreased the extent of DNA damage

B2: Smac/DIABLO: recombinant death-promoting protein released along with cytochrome c from mitochondria (protein, UniProt Q9NR28 22-239, looked up)
Diablo IAP-binding …: LCVPVVANFKKRCFSELIRPWHKTVTIGFGVTLCAVPIAQKSEPHSLSSEALMRRAVSLVTDSTSTFLSQTTYALIEAITEYTKAVYTLTSLYRQYTSLLGKMNSEEEDEVWQVIIGARAEMTSKHQEYLKLETTWMTAVGLSEMAAEAAYQTGADQASITARNHIQLVKLQVEEVHQLSRKAETKLAEAQIEELRQKTQEEGEERAESEQEAYLRED
increase in incidence of apoptosis in B6C3F1 oocytes (B6C3F1 oocytes; 24 h culture): ~3 fold
